These results are taken from US12692310B2, “ASIC1 channel antagonist antibody” (ShanghaiTech University, priority 2019, dated 2026).

Data set [1] has as its target T1, hASIC1a-eYFP on CHO-K1 cells (Homo sapiens, UniProt P78348).
T1 construct: overexpress the full-length hASIC1a (1-528 amino acids) protein fused with eYFP; expressed in transfected cells; host or cells: CHO-K1, transient
T1 sequence (P78348 1-528): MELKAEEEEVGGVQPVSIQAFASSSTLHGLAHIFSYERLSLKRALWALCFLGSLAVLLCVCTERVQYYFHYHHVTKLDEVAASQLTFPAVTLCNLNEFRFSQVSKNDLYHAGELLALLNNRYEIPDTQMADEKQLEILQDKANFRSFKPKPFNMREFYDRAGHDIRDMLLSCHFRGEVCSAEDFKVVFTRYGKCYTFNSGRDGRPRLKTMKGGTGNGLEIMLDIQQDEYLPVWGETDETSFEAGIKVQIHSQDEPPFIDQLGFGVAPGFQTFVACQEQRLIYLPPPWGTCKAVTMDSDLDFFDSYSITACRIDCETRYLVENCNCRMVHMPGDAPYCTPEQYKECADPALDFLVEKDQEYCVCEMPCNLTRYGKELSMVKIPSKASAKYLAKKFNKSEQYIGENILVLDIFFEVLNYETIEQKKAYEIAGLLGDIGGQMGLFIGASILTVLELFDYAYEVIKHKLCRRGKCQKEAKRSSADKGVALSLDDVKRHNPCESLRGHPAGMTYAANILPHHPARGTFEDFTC
The data set can be described thus: Immunocytochemistry on CHO-K1/hASIC1a cells. The following applies: ICC, confocal. The format is cell-based. The protocol:
Cell Membrane Colocalization Studies Using Immunocytochemistry (ICC). Cells (CHO-K1) were seeded onto the poly-D-lysine-coated glass bottom 24-well plates at a concentration of 2×10^5 cells per mL. After 12 h of cultivation, the CHO-K1 cells were transfected with ASIC plasmids by Lipofectin 3000 reagent. Twenty-four hours after transfection, the cells were fixed in 4% paraformaldehyde and incubated for 30 min in a blocking solution (5% goat serum in PBS). The resulting cells were incubated with […] ASC06-IgG1 at 4° C. overnight followed by three PBS washes for 5 min each and incubation with the Alexa555-conjugated goat anti-human secondary antibody (Life Technology). After three additional PBS washes for 5 min each, the nuclei of the cells were stained with DAPI (#10236276001; Roche). The ICC analysis was performed on a laser scanning confocal microscopy (ZEISS LSM710) with a 63×N.A. 1.4 objective at 25° C. Images were collected on a 1,024×1,024-pixel EM-CCD camera. Data acquisition and analyses were performed with the ZEN 2012 professional software.
To understand whether ASC01-ASC06 specifically bind to the ASIC1a protein expressed on cell surface, the binding of the antibodies to CHO-K1/hASIC1a cells was evaluated using immunocytochemistry. The CHO-K1/hASIC1a cells overexpress the full-length hASIC1a (1-528 amino acids) protein fused with eYFP. […] It is likely that ASC01-ASC05 recognize specific ASIC1a confirmations or subpopulations.
The ASC06 antibody was converted into a full length IgG1 form (ASC06-IgG1) for further study. […] The binding of ASC06-IgG1 to CHO-K1/hASIC1a cells was evaluated using immunocytochemistry, in comparison with the ASC06 (scFv format) antibody.

A short description of data set [2]: pH stability, SEC-HPLC analysis. Set-up: dose or concentration left out as unconfirmed. As to conditions: pH 7.4 to 5.0, 6 h at 37° C. The format is physicochemical. As for the experimental part:
The tolerance of ASC06-IgG1 to acidic conditions was tested. A concentrated ASC06-IgG1 solution ([…]) was incubated at different pH values (from 7.4 to 5.0) for 6 h at 37° C. and subjected to SEC-HPLC analysis.

Data set [3] relates to hASIC1a-eYFP stable cells (6H7). In words: Acidosis-induced cell death, CCK8 and LDH release. The format is cell-based. The protocol:
Acidosis-Induced Cell Death. The hASIC1a-eYFP stable cells (6H7) and CHO-K1 cells were seeded in a 96-well plate at a density of 10,000 cells per well 1 d before treatment. ECF solutions at pH 5.5, 6.0, and 7.4 were used to treat the cells at 37° C. for 6 h. To test the rescuing effect of ASC06-IgG1, the antibody was dissolved in an acidic ECF (pH 5.5) to make the final antibody concentrations of 0, 50, 100, 300, 500, and 1,000 nM. The 6H7 cells were first preincubated with the antibody at the corresponding concentrations at 37° C. for 30 min in cell media. After replacing the cell media with the corresponding acidic ECFs, the cells were incubated at 37° C. for 6 h, washed with a PBS buffer (pH 7.4), and then cultured in a 1% FBS DMEM/F-12K media overnight. The supernatants of the overnight culture were collected for the LDH release measurement using a LDH Assay kit (#88953; Thermo Fisher Scientific). The cells viability was determined using the CCK-8 assay kit (#CK04; Dojindo).
Extracellular acidosis in stroke or ischemia-reperfusion injury is known to induce the activation of ASIC1a channels, which leads to neuronal death in the central nervous system, most likely through transient increase of intracellular calcium and related cell signaling mediated by ASIC1a. The survival of hASIC1a overexpressing stable cells was assessed by measuring the enzymatic activities of cytoplasmic dehydrogenases (CCK8 assay) and the concentrations of lactate dehydrogenase (LDH) secreted into the cell media, which reflect the cell viability and cytotoxicity, respectively. […] In the presence of […] ASC06-IgG1, approximately 45% of the ASIC1a expressing stable cells survived at pH 5.5 comparing to about a 5% survival rate in the absence of the antibody. Consistent with CCK8 result, the concentration of LDH released into cell media decreased after the addition of ASC06-IgG1 is also in a dose-dependent manner (FIG. 7D).

The next data set relates to hASIC1a F252A. The data set can be described thus: FACS binding to alanine mutant hASIC1a-eYFP on CHO-K1 cells. The following applies: vs WT hASIC1a. The format is cell-based, human. As for the experimental part: To confirm the role of these amino acids, alanine mutagenesis was performed and four amino acids are very important for antibody binding were identified. Plasmid encoding single amino acid mutation of hASIC1a-eYFP was constructed and transient transfected into CHO-K1 cells. FACS binding assay was then performed to test whether the ASC06-IgG1 still binds to cell surface expressing mutated hASIC1a.

The target of the next data set is T2, hASIC1a-eYFP (Homo sapiens, UniProt P78348).
T2 sequence (P78348 1-528): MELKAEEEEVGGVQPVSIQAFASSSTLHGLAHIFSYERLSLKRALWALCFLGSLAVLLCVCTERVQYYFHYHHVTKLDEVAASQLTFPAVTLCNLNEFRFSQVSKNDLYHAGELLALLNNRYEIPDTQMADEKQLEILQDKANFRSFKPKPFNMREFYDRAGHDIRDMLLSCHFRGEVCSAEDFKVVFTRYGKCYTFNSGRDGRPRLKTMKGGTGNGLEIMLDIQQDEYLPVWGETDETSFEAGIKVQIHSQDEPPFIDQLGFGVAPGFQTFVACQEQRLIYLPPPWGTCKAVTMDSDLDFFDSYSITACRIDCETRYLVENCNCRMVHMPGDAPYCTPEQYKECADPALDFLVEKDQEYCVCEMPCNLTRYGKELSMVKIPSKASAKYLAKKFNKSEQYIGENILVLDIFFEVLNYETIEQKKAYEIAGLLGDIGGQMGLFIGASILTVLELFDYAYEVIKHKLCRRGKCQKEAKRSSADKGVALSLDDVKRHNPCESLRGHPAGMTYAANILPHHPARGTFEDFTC
The data set can be described thus: Western blot and immunoprecipitation of 6H7 cell lysate. Format: binding. Set-up: expressed in transfected cells. The text has this: To characterize the interaction between ASC06-IgG1 and hASIC1a, the 6H7 stable line expressing the hASIC1a-eYFP fusion protein was used in a Western blot analysis. […] In contrast, both the commercial goat polyclonal anti-ASIC1 antibody and the anti-eYFP antibody were able to detect the hASIC1a-eYFP protein in the 6H7 lysate at molecular mass around 100 kDa (FIG. 13A and data not shown).
ASC06-IgG1 was used to pull down native hASIC1a-YFP in cell lysate followed by anti-eYFP Western blot for hASIC1a-YFP detection.

B1: ASC06-IgG1: ASC06 antibody converted into a full length IgG1 form (antibody, V domains shown)
VH: QVQLQQSGGGLVQPGGSLRLSCAASGFTFSSYAMSWVRQAPGKGLEWVSAISGSGGSTYYADSVKGRFTISRDNSKNTLYLQMNSLRAEDTAVYYCAKDSFYGYSKGDWGQGTLVTVSS
VL: QSALTQPASVSGSPGQSITISCTGTSSDVGAYNYVSWYQQQPGKAPKLMIYGVSNRPSGVSNRFSGSKSGNAASLTISGLQAEDEADYYCSSYTSSSTYVFGTGTKLTVLG
With B1, in data set [1], the “membrane co-localization with hASIC1a” value is on record as “membrane co-localization with hASIC1a”. Further, the “degradation or aggregation by SEC-HPLC” value in data set [2] is reported as “no significant degradation or aggregation”. Also, the “survival of ASIC1a expressing stable cells” value in data set [3] (1,000 nM antibody, pH 5.5, CCK8) was “approximately 45%”. In addition, the “protective effect against acidosis-induced cell death, in words” value in data set [3] (pH 5.5) is “significant dose-dependent protective effect”. Moreover, the “concentration of LDH released into cell media” value in data set [3] (pH 5.5, dose-dependent) was “decreased”. Further, the “binding to hASIC1a F252A mutation” value in the data set on hASIC1a F252A is listed as “so does”. For the same molecule, the “recognition of hASIC1a in cell lysate in Western blot” value with hASIC1a-eYFP (denatured lysate of 6H7 cells) is given as “could not recognize”. Also, the “pull down of native hASIC1a-YFP, anti-eYFP Western blot” value in the data set with hASIC1a-eYFP (immunoprecipitation) was “recognized hASIC1a in a conformation-dependent manner”.
